Key:
[1] = target: tES-HRPc, truncated horseradish peroxidase fused to the C-terminus of a histidine-tagged tES subunit (Archaeoglobus fulgidus | horseradish) (UniProt O29424); assay: pull-down + SEC; tES(+) and His-tagged tES-POI coexpressed in E. coli BL21(DE3); Ni-NTA by the His tag of the fusion subunit, then SEC (25 mM Tris-HCl, pH 8); ratio by gel densitometry of purified fractions
[2] = target: tES-GFPuv, GFPuv fused to the C-terminus of a histidine-tagged tES subunit (Archaeoglobus fulgidus | not stated) (UniProt O29424); assay: as above
[3] = target: tES-rLuc, Renilla luciferase fused to the C-terminus of a histidine-tagged tES subunit (Archaeoglobus fulgidus | Renilla) (UniProt O29424); assay: as above
[4] = target: tES-GFPuv, GFPuv fused to the C-terminus of a histidine-tagged tES subunit (Archaeoglobus fulgidus | not stated) (UniProt O29424)

tES(+) thermostable exoshell subunit, net positive cavity (from UniProt O29424 1-164)
stoichiometry N (tES subunits per tES-POI fusion subunit) [1]: 19 | stoichiometry N (tES subunits per tES-POI fusion subunit) [2]: 32 | stoichiometry N (tES subunits per tES-POI fusion subunit) [3]: 20

tES(+)F116H, pH-titratable exoshell subunit (from UniProt O29424 1-164)
GFPuv fluorescence after in vitro folding; molar ratios of tES(+)F116H subunits to tES-GFPuv from 0:1 to 90:1, highest at 90:1 [4]: 100 fold
